From patent publication US20170130210A1
Several values for one entry are separate records, joined by “and”; a condition that tells them apart may be missing. Equal values may be shown once.

Target: Pfk-I with the C-terminal degradation tag DAS+4, expressed from the pfkA locus of E. coli strain IB1863 (E. coli) (UniProt P0A796)
Assay: cell-based or functional assay

Sequence of Pfk-I with the C-terminal degradation tag DAS+4, expressed from the pfkA locus of E. coli strain IB1863 (E. coli) (P0A796 1-320, tags or fused parts left off): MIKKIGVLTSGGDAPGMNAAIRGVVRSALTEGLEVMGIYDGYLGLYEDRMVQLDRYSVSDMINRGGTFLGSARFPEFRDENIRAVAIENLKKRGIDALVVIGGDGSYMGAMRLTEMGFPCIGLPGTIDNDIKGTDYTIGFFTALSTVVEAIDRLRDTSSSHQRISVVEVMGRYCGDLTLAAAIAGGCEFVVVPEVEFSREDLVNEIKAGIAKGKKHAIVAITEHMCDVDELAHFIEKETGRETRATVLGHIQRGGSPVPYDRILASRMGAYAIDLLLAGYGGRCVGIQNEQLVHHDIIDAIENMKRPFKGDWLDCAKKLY

Pfk activity in crude lysate of IB1863 after aTc induction of SspB, relative to wild-type (% of wild-type): 35 and 18
Substance: SspB, native E. coli adaptor protein (from UniProt P0AFZ3 1-165)
